# Test results published in patent US20170056486A1.
# B1: … (peptide)
# peptide: VYTGIDHHW
# B2: … (peptide)
# peptide: NYMPGQLTI
# B3: … (peptide)
# peptide: QFITSTNTF
# B4: … (peptide)
# peptide: AYKSEVVYF
# B5: … (peptide)
# peptide: KYTHFIQSF
# B6: … (peptide)
# peptide: VFIDHPVHL
# B7: … (peptide)
# peptide: KFDDVTMLF
# B8: … (peptide)
# peptide: VFIAQGYTL
# B9: … (peptide)
# peptide: KYSDVKNLI
# B10: … (peptide)
# peptide: NYENKQYLF
# B11: … (peptide)
# peptide: NYGVLHVTF
# B12: … (peptide)
# peptide: EYLQNLNHI
# B13: … (peptide)
# peptide: TYKDYVDLF
# B14: … (peptide)
# peptide: SYAELGTTI
# B15: … (peptide)
# peptide: KYLSVQLTL
# B16: … (peptide)
# peptide: VYNAVSTSF
# B17: … (peptide)
# peptide: LYQDHMQYI
# B18: … (peptide)
# peptide: SFLNIEKTEILF
# B19: … (peptide)
# peptide: VYNYAEQTL
# B20: … (peptide)
# peptide: AYSHLRYVF
# B21: … (peptide)
# peptide: KYYRQTLLF
# B22: … (peptide)
# peptide: VYTPVLEHL
# B23: … (peptide)
# peptide: KYPDIASPTF
# B24: … (peptide)
# peptide: MYLKLVQLF
# B25: … (peptide)
# peptide: YFIKSPPSQLF
# B26: … (peptide)
# peptide: KFFDDLGDELLF
# B27: … (peptide)
# peptide: VFLPRVTEL
# B28: … (peptide)
# peptide: IFITKALQI
# B29: … (peptide)
# peptide: SYAPPSEDLFL
# B30: … (peptide)
# peptide: DYVGFTLKI
# B31: … (peptide)
# peptide: KYTSYILAF
# B32: … (peptide)
# peptide: VYPDTVALTF
# B33: … (peptide)
# peptide: SYAPPSEDLF
# B34: … (peptide)
# peptide: SYVASFFLL
# Target: HLA-A*24 (human)
# Test: UV-exchange ELISA (anti-b2m); yield >=75%
row,peptide exchange yield,Binder
1,> 75%,B1
2,> 75%,B2
3,> 75%,B3
4,> 75%,B4
5,> 75%,B5
6,> 75%,B6
7,> 75%,B7
8,> 75%,B8
9,> 75%,B9
10,> 75%,B10
11,> 75%,B11
12,> 75%,B12

# Target: HLA-A*24 (human)
# Test: UV-exchange ELISA (anti-b2m); yield <20%
row,peptide exchange yield,Binder
1,< 20%,B13

# Target: HLA-A*24 (human)
# Test: UV-exchange ELISA (anti-b2m); yield 20%-49%
row,peptide exchange yield,Binder
1,20 to 49%,B14
2,20 to 49%,B15
3,20 to 49%,B16
4,20 to 49%,B17
5,20 to 49%,B18
6,20 to 49%,B19
7,20 to 49%,B20
8,20 to 49%,B21
9,20 to 49%,B22
10,20 to 49%,B23
11,20 to 49%,B24
12,20 to 49%,B25
13,20 to 49%,B26
14,20 to 49%,B27
15,20 to 49%,B28
16,20 to 49%,B29
17,20 to 49%,B30
18,20 to 49%,B31
19,20 to 49%,B32
20,20 to 49%,B33
21,20 to 49%,B34
